8 molecules from patent US20200247889A1 (published 2020) can be followed below.

Test [1] addresses T1, mouse TREM1 (mouse, UniProt Q9JKE2 21-230).
T1 construct: whole, on cells; also called mTREM1
T1 sequence (looked up): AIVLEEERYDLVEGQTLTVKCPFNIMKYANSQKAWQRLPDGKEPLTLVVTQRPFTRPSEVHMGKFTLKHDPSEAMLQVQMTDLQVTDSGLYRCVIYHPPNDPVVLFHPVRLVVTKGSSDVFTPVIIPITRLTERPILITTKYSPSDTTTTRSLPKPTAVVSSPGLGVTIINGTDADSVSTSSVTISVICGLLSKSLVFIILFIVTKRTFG
Description: flow cytometry cross-blocking on HEK293 cells over-expressing mouse TREM-1. On the procedure: 100,000 HEK293 cells over-expressing mouse TREM-1 were plated in 96 well plates and dead cells were stained with Zombie Near Infrared (Biolegend, San Diego, Calif.). These cells were subsequently incubated with the indicated unconjugated anti-mouse TREM-1 antibodies at saturating concentrations for 15 mins on ice. Following incubation with these antibodies, cells were then stained with the indicated Alexa Fluor 647 conjugated antibodies for 30 mins on ice. The ability of conjugated antibodies to bind in the presence of unconjugated antibodies was assessed by Alexa 647 signal measured by flow cytometry (BD Fortessa X-14, BD Biosciences, San Jose, Calif.).
The sequences denote the linear amino acid stretches that comprise each domain and the numbering is according to UniProt sequence analysis and 3D modelling of mouse TREM1.

In test [2] the target is T1, mouse TREM1. Description: flow cytometry on HEK293 cells over-expressing mouse TREM-1. On the procedure: 100,000 HEK 293 parental or over-expressing mouse TREM-1 were plated in 96 well plates and dead cells were stained with Zombie Near Infrared (Biolegend, San Diego, Calif.). […] These primary unconjugated antibodies were detected with Alexa Fluor 647 conjugated anti-mouse Fcγ secondary antibodies (Jackson Immunoresearch, West Grove, Pa.). Alexa Fluor 647 signal was measured by flow cytometry (BD Fortessa X-14, BD Biosciences, San Jose, Calif.). EC50 values were calculated by curve fitting signal generated from antibodies binding to over-expressing cells over background fluorescence generated from HEK293 parental cells in Graphpad Prism (Graphpad Software, La Jolla, Calif.).
(A flow cytometer gives signals particle by particle.)

Test [3] addresses T1, mouse TREM1. Put plainly: in vivo receptor occupancy, flow cytometry of tumor cells.
Description: CT26 (colon adenocarcinoma), LL/2 (lung adenocarcinoma), MC38 (colon adenocarcinoma), and RENCA (renal cell carcinoma) were harvested using StemPro Accutase Dissociation reagent (Gibco Corporation), washed in PBS and subcutaneously injected to female C57BL/6 (Jackson Laboratories) or BALB/c (Taconic Biosciences) mice at a dose between 8×10⁵-1×10⁶ cells in the right ventral flank. […] Antibody treatments were 15 mg/kg for both arms and mice were treated twice at the indicated time points. 48 hr after the second dose, mice were euthanized and the tumor and blood were harvested for immune population analysis and expression of TREM1. Immune population and expression analyses were performed by flow cytometry (BD Fortessa X-14, BD Biosciences).
In another test the target is T2, cynomolgus TREM1 (cynomolgus, UniProt A0A2K5VHG8 21-233).
T2 construct: whole, on cells; also called cTREM1
T2 sequence: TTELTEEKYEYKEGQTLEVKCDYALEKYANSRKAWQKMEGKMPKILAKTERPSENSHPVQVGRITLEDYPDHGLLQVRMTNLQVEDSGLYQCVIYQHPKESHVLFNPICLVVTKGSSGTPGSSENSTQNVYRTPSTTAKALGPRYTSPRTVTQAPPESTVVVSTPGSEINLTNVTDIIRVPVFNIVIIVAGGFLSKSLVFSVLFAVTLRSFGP
Description: flow cytometry on HEK293 cells over-expressing cynomolgus TREM-1.

Description for cynomolgus TREM1: Titrations of indicated unconjugated antibodies were incubated with these cells within a range of 0 ug/ml to 30 ug/ml in a 1:4 or 1:5 dilution range across 8 points. […] EC50 values were calculated by curve fitting signal generated from antibodies binding to over-expressing cells over background fluorescence generated from HEK293 parental cells in Graphpad Prism (Graphpad Software).

B1: Pi-9772 (antibody, mouse IgG2a, kappa, V domains shown)
VH: EVQLVESGGGLVQPGGSLRLSCAASGFDLSYSSMHWVRQAPGKGLEWVAYISPYSGYTSYADSVKGRFTISADTSKNTAYLQMNSLRAEDTAVYYCARHGSWSYGFSSGFDYWGQGTLVTVSS
VL: DIQMTQSPSSLSASVGDRVTITCRASQSVSSAVAWYQQKPGKAPKLLIYSASSLYSGVPSRFSGSRSGTDFTLTISSLQPEDFATYYCQQYAYYYPITFGQGTKVEIKR
notes: Anti-mouse TREM1 mAb
Consider B1, for which the binding result with mouse TREM1 [1] is listed as “binds”.

B2: afucosylated Pi-9772 (antibody, mouse IgG2a, kappa, V domains shown)
VH: EVQLVESGGGLVQPGGSLRLSCAASGFDLSYSSMHWVRQAPGKGLEWVAYISPYSGYTSYADSVKGRFTISADTSKNTAYLQMNSLRAEDTAVYYCARHGSWSYGFSSGFDYWGQGTLVTVSS
VL: DIQMTQSPSSLSASVGDRVTITCRASQSVSSAVAWYQQKPGKAPKLLIYSASSLYSGVPSRFSGSRSGTDFTLTISSLQPEDFATYYCQQYAYYYPITFGQGTKVEIKR
modifications: afucosylated Fc glycan
B2: the binding result with mouse TREM1 [2] is “binds”.

B3: Pi-4928 (antibody, mouse IgG2a, kappa, V domains shown)
VH: QVQLKESGPGLVQPSQTLSLTCTVSGFSITSSNVYWFRQPPGKGLEWMGNIWGDGSTDYNSSLKSRLTLSRDTSKNQVFLKINSLQSEDTATYFCTRSWEYYFDHWGQGVVVTVSS
VL: DIVLTQSPALAVSPGQRATLSCRASQSVTLSNVNLMNWYQQKPGQQPKLLIYHASNLASGIPTRFSGSGSGTDFTLTIDPVQADDIAAYYCQQSGESPRTFGGGTKVELKR
notes: Anti-mouse TREM1 mAb
In the case of B3, the binding result with mouse TREM1 [1] is “binds”.

B4: afucosylated Pi-4928 (antibody, mouse IgG2a, kappa, V domains shown)
VH: QVQLKESGPGLVQPSQTLSLTCTVSGFSITSSNVYWFRQPPGKGLEWMGNIWGDGSTDYNSSLKSRLTLSRDTSKNQVFLKINSLQSEDTATYFCTRSWEYYFDHWGQGVVVTVSS
VL: DIVLTQSPALAVSPGQRATLSCRASQSVTLSNVNLMNWYQQKPGQQPKLLIYHASNLASGIPTRFSGSGSGTDFTLTIDPVQADDIAAYYCQQSGESPRTFGGGTKVELKR
modifications: afucosylated Fc glycan
With B4, in the test with mouse TREM1 [2], the binding result is on record as “binds”.

B5: Pi-9067L (antibody, mouse IgG2a, kappa, V domains shown)
VH: EVQLVESGGGLVQPGGSLRLSCAASGFDIYSYSIHWVRQAPGKGLEWVAYIYPSYGYTSYADSVKGRFTISADTSKNTAYLQMNSLRAEDTAVYYCARGAVAALDYWGQGTLVTVSS
VL: DIQMTQSPSSLSASVGDRVTITCRASQSVSSAVAWYQQKPGKAPKLLIYSASSLYSGVPSRFSGSRSGTDFTLTISSLQPEDFATYYCQQYGVSGYSLITFGQGTKVEIKR
notes: Anti-mouse TREM1; also called WT Pi-9067L; fucosylated PI-9067L
With B5, the binding result with mouse TREM1 [1] was “binds”.

B6: Pi-9069L (antibody, mouse IgG2a, kappa, V domains shown)
VH: EVQLVESGGGLVQPGGSLRLSCAASGFDLYSSYIHWVRQAPGKGLEWVASIYPSYGYTYYADSVKGRFTISADTSKNTAYLQMNSLRAEDTAVYYCARSHSYVHGAMDYWGQGTLVTVSS
VL: DIQMTQSPSSLSASVGDRVTITCRASQSVSSAVAWYQQKPGKAPKLLIYSASSLYSGVPSRFSGSRSGTDFTLTISSLQPEDFATYYCQQYWWVPAAPITFGQGTKVEIKR
Turning to B6, the binding result with mouse TREM1 [3] was “binds”.

B7: afucosylated Pi-9067L (antibody, mouse IgG2a, kappa, V domains shown)
VH: EVQLVESGGGLVQPGGSLRLSCAASGFDIYSYSIHWVRQAPGKGLEWVAYIYPSYGYTSYADSVKGRFTISADTSKNTAYLQMNSLRAEDTAVYYCARGAVAALDYWGQGTLVTVSS
VL: DIQMTQSPSSLSASVGDRVTITCRASQSVSSAVAWYQQKPGKAPKLLIYSASSLYSGVPSRFSGSRSGTDFTLTISSLQPEDFATYYCQQYGVSGYSLITFGQGTKVEIKR
modifications: afucosylated Fc glycan
notes: Same polypeptides as Pi-9067L, afucosylated; also called Afuc-Pi-9067L; Afuc-PI-9067L
As to B7, the binding result with mouse TREM1 [2] is recorded as “binds”.

B8: Pi-8421 (antibody, V domains shown)
VH: EVQLVESGGGLVQPGGSLRLSCAASGFDISYSSIHWVRQAPGKGLEWVASIYSSYGSTYYADSVKGRFTISADTSKNTAYLQMNSLRAEDTAVYYCARYYYSHAGWYVSGYWPAIDYWGQGTLVTVSS
VL: DIQMTQSPSSLSASVGDRVTITCRASQSVSSAVAWYQQKPGKAPKLLIYSASSLYSGVPSRFSGSRSGTDFTLTISSLQPEDFATYYCQQSSYSLITFGQGTKVEIK
On to B8, for which the binding result in the test with cynomolgus TREM1 is “no binding (tested: titrated within 0 ug/ml to 30 ug/ml)”.
